The source of these data is publication PMC6726503 (2019).

The experiment deals with T1, TGF-β2 (Homo sapiens, UniProt P61812).
T1 chain: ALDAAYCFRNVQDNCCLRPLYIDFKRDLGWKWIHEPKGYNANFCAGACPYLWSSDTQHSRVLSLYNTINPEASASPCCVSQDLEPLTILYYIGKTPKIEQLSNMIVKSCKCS
In words: SPR.

B1: betaglycan O-ZP (protein)
chain: GPEPSTRCELSPINASHPVQALMESFTVLSGCASRGTTGLPREVHVLNLRSTDQGPGQRQREVTLHLNPIASVHTHHKPIVFLLNSPQPLVWHLKTERLAAGVPRLFLVSEGSVVQFPSGNFSLTAETEERNFPQENEHLLRWAQKEYGAVTSFTELKIARNIYIKVGEDQVFPPTCNIGKNFLSLNYLAEYLQPKAAEGCVLPSQPHEKEVHIIELITPSSNPYSAFQVDIIVDIRPAQEDPEVVKNLVLILKCKKSVNWVIKSFDVKGNLKVIAPNSIGFGKESERSMTMTKLVRDDIPSTQENLMKWALDNGYRPVTSYTMAPVANRFHLRLENNEEMRDEEVHTIPPELRILLDPDHPPALDNPLFPGEGSPNGGLPFPFPDIPRRGWKEGEDRIPRPKQPIVPSVQLLPDHREPEEVQGGVDIALSVKCDHEKMVVAVDKDSFQTNGYSGMELTLLDPSCKAKMNGTHFVLESPLNGCGTRHRRSTPDGVVYYNSIVVQAPSPGDSSGWPDGYEDLESGDNGFPGDGDEGETAPLSRAGVVVFNCSLRQLRNPSGFQGQLDGNATFNMELYNTDLFLVPSPGVFSVAENEHVYVEVSVTKADQDLGFAIQTCFLSPYSNPDRMSDYTIIENICPKDDSVKFYSSKRVHFPIPHAEVDKKRFSFLFKSVFNTSLLFLHCELTLCSRKKGSLKLPRCVTPDDACTSLDATMIWTMMQNKKTFTKPLAVVLQVDYKENVPSTKDSSPIPPPPPQIFHGLDTL
The molecule B1 had a Kd of 0.5 nM. That is a sub-nanomolar value.

B2: betaglycan O (protein)
chain: GPEPSTRCELSPINASHPVQALMESFTVLSGCASRGTTGLPREVHVLNLRSTDQGPGQRQREVTLHLNPIASVHTHHKPIVFLLNSPQPLVWHLKTERLAAGVPRLFLVSEGSVVQFPSGNFSLTAETEERNFPQENEHLLRWAQKEYGAVTSFTELKIARNIYIKVGEDQVFPPTCNIGKNFLSLNYLAEYLQPKAAEGCVLPSQPHEKEVHIIELITPSSNPYSAFQVDIIVDIRPAQEDPEVVKNLVLILKCKKSVNWVIKSFDVKGNLKVIAPNSIGFGKESERSMTMTKLVRDDIPSTQENLMKWALDNGYRPVTSYTMAPVANRFHLRLENNEEMRDEEVHTIPPELRILLDPDHPPALDNPLFPGEGSPNGGLPFPFPD
As for B2, the affinity, expressed as Kd, was 10 nM.

In general, Kd refers to a measure of binding affinity in units of concentration. Low readings indicate a tighter complex, high ones a looser complex.
